Like-named read-outs stand apart in the source and are kept apart here.
Key:
[1] = Equilibrium denaturation of FKBP-12 proteins by GdnHCl, capillary method; type: physicochemical
Protocol: Samples were measured and averaged for 100 laser pulses. […] Error bars shown are standard deviations.
(§1) The experimental detail was as set out below:
(§2) Equilibrium denaturation of wild-type FKBP-12: 50 μl, of FKBP-12 stock (50 μM FKBP-12, 5 mM DTT, 50 mM Tris.HCl, pH 7.5) was added to each well of a UV transparent Costar (Corning, Lowell, Mass., USA) 96-well plate. […] Samples were sealed and equilibrated for 17 hours at 22° C. prior to measurement of intrinsic protein fluorescence in a Fluostar Optima plate reader as above. The same samples were then used to measure intrinsic protein fluorescence in the micro-capillary device for a direct comparison.
(§3) Data for the observed fluorescence (Fobs) as a function of denaturant concentration ([D]) were fit using SigmaPlot 10.0 (Systat Software, Hounslow, UK) to the equation below: […]
(§4) The free energy of protein denaturation in water ΔGH2O was calculated as mGC1/2, using the fitted mG, where we set the denaturant dependent free energy (ΔGobs) to zero in the equation below when [D] is equal to C1/2. ΔGobs=ΔGH2O+mG[D] Values of ΔGH2O were used to calculate the change in free energy of the mutant or ligand bound protein, ΔΔGX-WT, relative to un-liganded wild-type FKBP-12. The change in free energy of unfolding upon ligand binding, ΔΔGbinding, was calculated for each mutant from the values of ΔGH2O for liganded FKBP-12 relative to ΔGH2O for non-liganded FKBP-12.

[2] = Example 1 GdHCl denaturation of FKBP-12, capillary intrinsic fluorescence; type: physicochemical; settings: 2 μM FKBP-12, GdHCl, 1 mM DTT, 50 mM Tris.HCl pH 7.5, 20° C.
Excerpt: The configuration comprises a laser 5 (QUV266-02, Crystalaser, Reno, Nev.) of wavelength 266 nm, 5 mW, pulsed at 1 kHz; a bandpass filter (newport), at 266 nm 15; a converging lens (SPX010AR.10, Newport) 16; a 100 μm internal diameter capillary (FS-110, Upchurch™) 1; and a photo multiplier tube (R1166PMT, Hamamatsu, Japan) 7; linked to a data acquisition system consisting of a PC expansion card (PXI-5124, National Instruments), for capture and analysis of the data in Labview (National Instruments). […] Samples were measured and averaged for 100 laser pulses. […] A fluorescence relative intensity of 1500 at a concentration of 0 mg ml^−1 of BSA corresponds to the background signal of the setup generated by excitation radiation.
The denaturation experiment was repeated for another protein using 2 μM FKBP-12. […] The stability was measured using the denaturant guanidinium hydrochloride (GdHCl) in 1 mM dithiothreitol (DTT), 50 mM Tris.HCl at pH 7.5 and at 20° C., using a flow rate of 10 μL/min through the capillary. The fluorescence of FKBP with various concentrations of GdHCl (from 0M to 3M) was measured. […] C1/2 represents the denaturant concentration at which half of the protein is in the unfolded state.

[3] = Equilibrium denaturation of FKBP-12 proteins by GdnHCl, microplate method; type: physicochemical
Protocol: as §1, §2, §3, §4

[4] = Literature, cited from earlier work
[5] = GdnHCl, 50 mM Tris.HCl pH 7.5, 1 mM DTT
[6] = GdnHCl, mG from each independent curve fit
[7] = GdnHCl, using average mG values
[8] = relative to wild-type FKBP-12 without rapamycin, from ΔGH2O

In the case of “FKBP-12 wt: Wild-type FKBP-12 expressed and purified from a GST-FKBP fusion gene in E. coli BL21 cells”, the mG ([1]; GdnHCl) was 5.4 ± 0.7 kcal mol^−1 M^−1, the “C1/2 (transition mid-point)” value [1, 5] was 0.74 ± 0.02 M and the ΔGH2O [1, 6] was 16.9 ± 2.1 kJ/mol. For the same substance, the “ΔG<mG>” value [1, 7] was 16.1 ± 1.3 kJ/mol, the ΔΔGX-WT [1, 8] was 0 kJ/mol and the “mid-point of denaturation (C1/2), absence of rapamycin” value [2] was 0.65 M. For the same substance, the mG ([3]; GdnHCl) was 6.6 ± 0.4 kcal mol^−1 M^−1, the “C1/2 (transition mid-point)” value [3, 5] was 0.77 ± 0.01 M and the ΔGH2O [3, 6] was 21.1 ± 1.3 kJ/mol. The “ΔG<mG>” value [3, 7] was 19.7 ± 1.3 kJ/mol, the ΔΔGX-WT [3, 8] was 0 kJ/mol and the “C1/2 (transition mid-point)” value ([4]; GdnHCl) was 0.78 ± 0.005 M. For the same substance, the mG ([4]; GdnHCl) was 6.6 ± 0.3 kcal mol^−1 M^−1, the ΔGH2O ([4]; GdnHCl) was 21.5 ± 0.84 kJ/mol and the ΔΔGX-WT ([4]; relative to wild-type FKBP-12 without rapamycin) was 0 kJ/mol.

From patent US9347884B2, “Microfluidic device with direct sample heating via electromagnetic radiation” (UCL BUSINESS PLC, priority 2009, dated 2016)
